Experiments:
Dmr1-His6 [1] = target: T1, Dmr1-His6 (Saccharomyces cerevisiae, UniProt P48237 27-864); experiment: footprinting; Dis3p 3'-5' exoribonuclease, 2 mM MgCl2; stop 3-5 nt downstream of (AUA)4AU; EMSA as in Puchta et al. 2010 (buffer not restated), 15 uL, up to 0.8 ug Dmr1p, BSA to constant protein, 0.2 ug tRNA; PNPase protection: 20 mM Tris-HCl pH 8.0; details: protein: recombinant; tags: His6 (pET28a); label: 32P-UTP
T1 sequence: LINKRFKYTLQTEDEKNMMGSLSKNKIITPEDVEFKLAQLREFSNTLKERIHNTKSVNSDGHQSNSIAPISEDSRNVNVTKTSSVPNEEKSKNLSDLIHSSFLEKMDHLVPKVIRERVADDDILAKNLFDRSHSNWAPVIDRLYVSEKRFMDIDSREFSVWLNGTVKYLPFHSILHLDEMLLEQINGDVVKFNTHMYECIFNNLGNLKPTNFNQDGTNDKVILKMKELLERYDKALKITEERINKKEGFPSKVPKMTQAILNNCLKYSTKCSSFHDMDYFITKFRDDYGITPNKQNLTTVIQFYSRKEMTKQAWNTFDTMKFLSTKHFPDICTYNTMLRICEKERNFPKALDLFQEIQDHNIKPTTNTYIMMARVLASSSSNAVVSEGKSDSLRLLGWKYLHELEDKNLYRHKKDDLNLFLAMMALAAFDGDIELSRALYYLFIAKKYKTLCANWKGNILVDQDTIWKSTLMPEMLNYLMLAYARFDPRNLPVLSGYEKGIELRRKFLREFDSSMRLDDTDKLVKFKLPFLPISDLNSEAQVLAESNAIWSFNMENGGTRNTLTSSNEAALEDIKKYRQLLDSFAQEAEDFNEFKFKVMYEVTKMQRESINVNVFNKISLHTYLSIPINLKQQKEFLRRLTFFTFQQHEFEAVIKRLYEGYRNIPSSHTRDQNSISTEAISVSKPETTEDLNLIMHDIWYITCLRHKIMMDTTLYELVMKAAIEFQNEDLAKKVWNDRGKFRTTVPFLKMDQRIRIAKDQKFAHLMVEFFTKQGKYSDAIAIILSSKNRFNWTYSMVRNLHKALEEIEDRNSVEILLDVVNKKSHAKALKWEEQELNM

[2] = target: T2, Dmr1p (Ccm1p), tag removed (Saccharomyces cerevisiae, UniProt P48237 27-864); experiment: EMSA; 0.2 ug tRNA; EMSA as in Puchta et al. 2010 (buffer not restated), 15 uL, up to 0.8 ug Dmr1p, BSA to constant protein, 0.2 ug tRNA; PNPase protection: 20 mM Tris-HCl pH 8.0; details: protein: recombinant; tags: none after TEV cleavage (from Dmr1-MBP-His6); label: 32P-UTP
T2 sequence: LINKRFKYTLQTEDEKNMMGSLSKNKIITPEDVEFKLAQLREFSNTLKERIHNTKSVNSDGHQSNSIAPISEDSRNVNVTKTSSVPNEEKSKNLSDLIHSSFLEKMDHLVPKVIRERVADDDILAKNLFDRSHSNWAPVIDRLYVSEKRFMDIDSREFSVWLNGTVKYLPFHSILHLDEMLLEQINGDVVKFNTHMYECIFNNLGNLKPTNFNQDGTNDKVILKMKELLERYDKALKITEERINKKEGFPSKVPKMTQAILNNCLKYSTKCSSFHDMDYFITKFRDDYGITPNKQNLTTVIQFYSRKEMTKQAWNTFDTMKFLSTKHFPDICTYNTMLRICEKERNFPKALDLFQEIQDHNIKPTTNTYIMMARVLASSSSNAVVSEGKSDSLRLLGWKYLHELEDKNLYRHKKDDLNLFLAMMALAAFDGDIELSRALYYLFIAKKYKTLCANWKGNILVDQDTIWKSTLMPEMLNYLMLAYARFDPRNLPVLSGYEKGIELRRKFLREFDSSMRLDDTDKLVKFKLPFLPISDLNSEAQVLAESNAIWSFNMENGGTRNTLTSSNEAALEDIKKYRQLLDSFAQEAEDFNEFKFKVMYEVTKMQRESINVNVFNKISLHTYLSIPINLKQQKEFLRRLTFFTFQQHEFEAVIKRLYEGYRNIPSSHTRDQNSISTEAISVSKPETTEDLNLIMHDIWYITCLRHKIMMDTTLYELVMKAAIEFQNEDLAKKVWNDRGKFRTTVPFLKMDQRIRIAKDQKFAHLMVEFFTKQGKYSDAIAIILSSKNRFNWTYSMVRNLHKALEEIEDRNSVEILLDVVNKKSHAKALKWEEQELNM

Dmr1-His6 [3] = target: T1, Dmr1-His6; experiment: nuclease protection; Terminator 5'-3' exonuclease, 2 mM MgCl2; partial; text calls it the 24 nt fragment, legend 15_14; EMSA as in Puchta et al. 2010 (buffer not restated), 15 uL, up to 0.8 ug Dmr1p, BSA to constant protein, 0.2 ug tRNA; PNPase protection: 20 mM Tris-HCl pH 8.0; details: protein: recombinant; tags: His6 (pET28a); label: 32P-UTP
[4] = target: T2, Dmr1p (Ccm1p), tag removed; experiment: EMSA; 0.2 ug tRNA; strong; EMSA as in Puchta et al. 2010 (buffer not restated), 15 uL, up to 0.8 ug Dmr1p, BSA to constant protein, 0.2 ug tRNA; PNPase protection: 20 mM Tris-HCl pH 8.0; details: protein: recombinant; tags: none after TEV cleavage (from Dmr1-MBP-His6); label: 32P-UTP
Dmr1-His6 [5] = target: T1, Dmr1-His6; experiment: nuclease protection; PNPase, 2 mM MgCl2; complete protection, from 0.1 ug protein; EMSA as in Puchta et al. 2010 (buffer not restated), 15 uL, up to 0.8 ug Dmr1p, BSA to constant protein, 0.2 ug tRNA; PNPase protection: 20 mM Tris-HCl pH 8.0; details: protein: recombinant; tags: His6 (pET28a); label: 32P-UTP
Dmr1-His6 [6] = target: T1, Dmr1-His6; experiment: nuclease protection; PNPase, 2 mM MgCl2; not protected; EMSA as in Puchta et al. 2010 (buffer not restated), 15 uL, up to 0.8 ug Dmr1p, BSA to constant protein, 0.2 ug tRNA; PNPase protection: 20 mM Tris-HCl pH 8.0; details: protein: recombinant; tags: His6 (pET28a); label: 32P-UTP

**Q.** Does GGAAAGAUGAAAUAAUAAUAAUAAUUAUAAGACUAAU (ssRNA) [15_35] bind (Dmr1-His6 [1])?
**A.** Result: binds

**Q.** Does GGUAUAUAUAUAAUAU (ssRNA) [N_14] bind [2]?
**A.** Result: no binding

**Q.** Does GGAUAAUAAUAAUAAU (ssRNA, 5' monophosphate (polyphosphatase treated)) [15_14 5'-monophosphate] bind (Dmr1-His6 [3])?
**A.** Result: binds

**Q.** Does GGAAAUAAUAAUAAUAAUUAUAAGAC (ssRNA) [15_24] bind [2]?
**A.** Result: binds

**Q.** Does GGUUAUAAUAAUAAUAAUAAUAAUAU (ssRNA) [20_24] bind [4]?
**A.** Result: binds

**Q.** Does GGUUAUAAUAAUAAUAAUAAUAAUAU (ssRNA) [20_24] bind (Dmr1-His6 [5])?
**A.** Result: binds

**Q.** Does GGAUAAUAAUAAUAAU (ssRNA) [15_14] bind [2]?
**A.** Result: binds

**Q.** Does GGAAAAGGAUAUAUAUAUAAUAUAUA (ssRNA) [N_24] bind [2]?
**A.** Result: no binding

**Q.** Does GGAAAAGGAUAUAUAUAUAAUAUAUA (ssRNA) [N_24] bind (Dmr1-His6 [6])?
**A.** Result: no binding

— PMC7430664, “Yeast pentatricopeptide protein Dmr1 (Ccm1) binds a repetitive AU-rich motif in the small subunit mitochondrial ribosomal RNA”
